Results taken from patent US8394765B2, “Methods of treating obesity with two different anti-obesity agents” (Amylin Pharmaceuticals LLC, priority 2004, dated 2013).

Legend:
[1] = Pair-feeding experiment in DIO rats, amylin+leptin (Example 2); type: in vivo, rat; settings: two weeks, leptin 500 μg/kg/day with intake restricted to amount consumed by amylin-treated group, FIG. 7
Experimental: Amylin is known to have an anorectic effect on a recipient. In order to examine the effect of amylin+leptin in the context of an anorectic effect of amylin, a pair-feeding experiment was performed. DIO rats and drug treatment groups were established as described above. DIO rats in the vehicle, amylin, and amylin+leptin treatment groups had ad libitum access to food, while intake in the pair-fed leptin treatment was restricted to the amount consumed by the amylin-treated group. Body weight was recorded daily for the two weeks of treatment. […] The combination of amylin+leptin results in a decrease of about 12% in body weight relative to vehicle control.

[2] = 24-week randomized, double-blind, active-drug-controlled study of pramlintide and metreleptin in overweight and obese subjects (Example 8); type: in vivo, human
Experimental: To evaluate inter alia the safety, tolerability and effect of the combination of an amylin agonist (pramlintide) and a leptin (metreleptin) on changes in body weight, a 24-week, randomized, double-blind, active-drug-controlled, multicenter study was conducted under USFDA approved protocols. Secondary objectives of the study were the determination of the pharmacokinetics of pramlintide and leptin, waist circumference, rate of change in body weight, and patient reported outcomes including for example without limitation perception of well-being related to weight change and mood. The study enrolled overweight and obese subjects with defined BMI ([…]), with enrollment statistics as provided in Table 2. […] Subjects treated with pramlintide/metreleptin lost an average of 25 pounds from the start of the 24-week study compared with an average of 17 pounds for subjects treated with pramlintide alone.
In an initial lead-in phase, all subjects received dietary instructions and treatment with pramlintide at 180 mcg BID for two weeks, followed by pramlintide at 360 mcg BID for two weeks. Subjects who completed the 4-week lead-in period and who lost 2-8 percent body weight during this period were eligible to continue the study. The term “enrolled” (Table 2) refers to subjects (N=177) receiving at least one dose of pramlintide during the lead-in period. The term “non-randomized” refers to subjects not continuing in the study past the lead-in period. The term “evaluable” refers to subjects who completed Visit 9 (Week 16) study procedures and adequately complied with the study protocol.
After the 4-week lead-in period, for the remaining 20 weeks of the study the subjects were randomized in a 2:2:1 ratio to one of three groups with BID treatment of 1) pramlintide 360 mcg/metreleptin 5 mg (“Leptin+Pramlintide”); 2) pramlintide 360 mcg/placebo (“Pramlintide”); or 3) metreleptin 5 mg/placebo (“Leptin”).

[3] = In-bred DIO (Levin) rats, amylin and leptin, body weight and NMR body composition (Example 2); type: in vivo, rat; settings: two weeks, leptin 500 μg/kg/day, amylin 100 μg/kg/day, FIG. 6A
Experimental: They were housed individually in shoebox cages at 22 C in a 12/12-hour light dark cycle.
Body composition was measured prior to and after drug treatment using NMR (Echo Medical Systems, Houston, Tex.). For body composition measurements, rats were briefly placed (˜1 min) in a well-ventilated plexiglass tube that was then inserted into a specialized rodent NMR machine. Rats were scanned prior to pump implantation and on the final day of the experiment. This enabled the calculation of changes in actual grams of fat and dry lean tissue (e.g., grams of body fat after treatment−grams of body fat at baseline=change in grams of body fat) and changes in % body composition for fat and dry lean tissue (e.g., % body fat after treatment−% body fat at baseline=change in % body fat).

[4] = DIO rat 14-day mini-pump study of leptin and amylin: food intake, body weight, body composition (Example 1); type: in vivo; settings: DIO rats, 14 days s.c. osmotic mini-pump, leptin 500 μg/kg/day, amylin 100 μg/kg/day
From the text: Diet-induced obesity (DIO) in the in the Sprague-Dawley rat is a valuable model for the study of obesity and regulation of energy homeostasis. These rats were developed from a line of (Crl:CD®(SD)BR) rats that are prone to become obese on a diet relatively high in fat and energy. See, for example, Levin (1994) Am. J. Physiol. 267:R527-R535, Levin et al. (1997) Am. J. Physiol. 273:R725-R730. DIO male rats were obtained from Charles River Laboratories, Inc. (Wilmington, Mass.). The rats were housed individually in shoebox cages at 22° C. in a 12/12-hour light dark cycle. Rats were maintained ad-libitum on a moderately high fat diet (32% kcal from fat; Research Diets D1226B) for 6-7 weeks prior to drug treatment. At the end of the fattening period (prior to drug administration), the animals typically achieve a mean body weight of about 500 g.
The DIO animals were divided into four treatment groups. Each group was implanted with subcutaneous osmotic mini-pumps (DURECT Corp., Cupertino, Calif.) designed to deliver vehicle, leptin (500 μg/kg/day), amylin (100 μg/kg/day) or leptin (500 μg/kg/day)+amylin (100 μg/kg/day) for a 14 day period. […] Food intake and body weight were recorded daily. Body composition was measured prior to and after drug treatment using NMR (Echo Medical Systems, Houston, Tex.). […]

[5] = Leptin effect on body weight in normal HSD versus DIO prone rats (Example 3); type: in vivo, rat; settings: FIG. 9
Experimental: Normal, lean HSD rats were divided into two treatment groups. Each group was implanted with subcutaneous osmotic mini-pumps (DURECT Corp., Cupertino, Calif.) designed to deliver either vehicle or leptin (500 μg/kg/day) for a 14 day period and body weight was recorded weekly. […] The DIO prone animals described herein appear resistant to the weight reducing effect of leptin.

[6] = 4-week pramlintide lead-in, arm of later randomization

B1: murine leptin (protein, UniProt P41160 22-167, looked up)
Leptin: VPIQKVQDDTKTLIKTIVTRINDISHTQSVSAKQRVTGLDFIPGLHPILSLSKMDQTLAVYQQVLTSLPSQNVLQIANDLENLRDLLHLLAFSKSCSLPQTSGLQKPESLDGVLEASLYSTEVVALSRLQGSLQDILQQLDVSPEC
[1]
  decrease in body weight relative to vehicle control, pair-fed: ~6%
[2]; 0-12 weeks, evaluable population, FIG. 24
  rate of change in body weight, early rate: −0.19±0.05 kg/week
[2]; 4-week lead-in period in which all subjects received pramlintide (180 then 360 mcg BID), arm of later randomization
  Mean Change in Body Weight: -3.97 kg
[2]; [6]
  % Weight Loss During Lead-in <5% (share of subjects): 78%
  % Weight Loss During Lead-in ≧5% (share of subjects): 22%
[2]; 12-20 weeks, evaluable population, FIG. 24
  rate of change in body weight, late rate: −0.01±0.08 kg/week
[3]
  vehicle-corrected decrease in percent body weight: 2%
[4]; FIG. 1
  cumulative food intake: no effect
[4]; FIG. 2
  total changes in body weight: no effect
[5]; DIO prone rats, same leptin dose
  body weight: ineffective
[5]; normal, lean HSD rats, leptin 500 μg/kg/day s.c. mini-pump, 14 days
  body weight: significant and sustained reduction in body weight
